This is an account of results in patent publication US20180346588A1 (MOGAM INSTITUTE FOR BIOMEDICAL RESEARCH, published 2018).

Residue numbers refer to the chain shown, from its start.

B1: clone MI403 anti-MSLN antibody (antibody, V domains shown)
VH: EVQVVESGGGLVKPGGSLKLSCAASGFAFSSYDMSWVRQTPEKRLEWVAYISSGGGSTYYPDTVKGRFTISRDNAKNTLYLQMNSLKSEDTAMYYCARQGTAVKNYWYFDVWGAGTSVTVSS
VL: DIVMTQSPASLAVSLGQRATISCRASQSVSTSSSSYVHWYQQRPGQPPKLLIKYASNLESGVPARFSGSGSGTDFTLNIHPVEEEDTGTYYCQHSWEIPFTFGSGTKLEIKR
notes: also called M1403
B2: clone MI329 anti-MSLN antibody (antibody, V domains shown)
VH: EVMLVESGGDLVKPGGSLKLSCAASGFTFSSYAMSWVRRTPEKRLEWVATINSDGSYTFYPDSVKGRFTISRDNAKNTLYLQMNSLRSEDTAMYYCARWGENWYFDVWGAGTTVTVSS
VL: DVVMTQTPLSLPVSLGDQASISCRSSQSLVHSNGNTYLHWYLQKPGQSPKLLIYKVSNRFSGVPDRFSGSGSGTDFTLKISRVEAEDLGIYFCSQSTHFPRTFGGATKLELKR
notes: also called M1329
B3: clone MI323 anti-MSLN antibody (antibody, V domains shown)
VH: EVQLQQSGPELVKPGTSVKISCKASGYSFTSYFIQWVKQRPGQGLEWIGWIFPGSGNTKYNEMFKGKATLAADTSSSTAYMQLSSLTSEDSAVYFCARSGGYQYYFDYWGQGTSVTVSS
VL: DIVMTQSHKFMSTSVGDRVSITCKASQDVSTAVAWYQQKPGQSPKLLIYSASYRYPGVPDRFTGSGSGTDFTFTISSVQAEDLALYYCQQHYSTPWTFGGGTKLEIKR
notes: also called M1323
B4: clone MS502 anti-MSLN antibody (antibody, V domains shown)
VH: EVQLLESGGGLVQPGGSLRLSCAASGFTFSNYAMSWVRQAPGKGLEWVSGIPPDSGSKYYADSVRGRFTVSRDNSKNTLYLQMNSLRAEDTAVYYCAKNMLSFDYWGQGTLVTVSS
VL: QSVLTQPPSASGTPGQRVTISCTGSSSNIGSNAVSWYQQLPGTAPKLLIYYNSKRPSGVPDRFSGSKSGTSASLAISGLRSEDEADYYCGSWDSSLNGYVFGGGTKVTVLG
notes: SPR and FACS done with IgG: human IgG1 heavy chain constant region
B5: clone C3C8 (MS502 light chain variable region mutation antibody) (antibody, V domains shown)
VH: B4 VH
VL: B4 VL with S31P, S95D, N97R
notes: SPR done with IgG (human IgG1 heavy constant region)
B6: clone C2G1 (MS502 light chain variable region mutation antibody) (antibody, V domains shown)
VH: B4 VH
VL: B4 VL with S31P, N97S
notes: as for B5
B7: clone C2G4 (MS502 light chain variable region mutation antibody) (antibody, V domains shown)
VH: B4 VH
VL: B4 VL with S94P
notes: as for B5
B8: clone 2-78-C2G4 antibody (antibody, V domains shown)
VH: B4 VH with L101F
VL: B4 VL with S94P
notes: IgG (human IgG1 heavy chain constant region; light chain constant region said to be human kappa)

T1 sequence (Q13421 other isoform, or with tags, fused parts or gaps limits assumed): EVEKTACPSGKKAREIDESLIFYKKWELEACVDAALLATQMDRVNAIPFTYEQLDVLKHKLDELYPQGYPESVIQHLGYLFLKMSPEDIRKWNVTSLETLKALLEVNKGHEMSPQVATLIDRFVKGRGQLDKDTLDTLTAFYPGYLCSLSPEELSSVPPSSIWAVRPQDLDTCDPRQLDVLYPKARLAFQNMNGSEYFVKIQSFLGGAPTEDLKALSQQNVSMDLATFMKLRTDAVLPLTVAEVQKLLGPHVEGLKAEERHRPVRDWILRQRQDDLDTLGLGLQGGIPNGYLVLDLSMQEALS

The first test has as its target T1, human mesothelin (MSLN) on the cell surface (human, UniProt Q13421 296-598).
T1 construct: also called MSLN of mesothelioma (H226, H2052) and pancreatic cancer (AsPC-1) cell lines; MSLN on MiaPaCa-MSLN #2 cells
Nature of the test: FACS on MSLN stable cell line (#2), left panels; sheet note: 1st Ab 1 µg (1st assay), 2nd Ab anti-human Fc antibody FITC. How it is done: FACS test was performed on the MSLN present in the cell surface with regard to MiaPaCa-MSLN which is a cell line in which the MSLN was artificially expressed. Cells to be analyzed that were grown in a culture dish were separated by adding a Tryple Express solution and stored in a 50 mL tube, followed by centrifugation at 2000 rpm at room temperature for 3 minutes to decant the culture fluid, and the obtained product was washed once with PBS. The cells were suspended with FACS buffer, and transferred to a round bottom tube and centrifuged at 2000 rpm at room temperature for 3 minutes. The supernatant was discarded and the cells were well-loosened with the FACS buffer so as to have a cell density of 4×10⁵/mL. Then, 1 μg of candidate antibody was added thereto at 4° C. After 1 hour, the resultant material was washed with the FACS buffer twice, and goat-derived anti-human IgG antibody (FITC junction) was added in an amount of 1 μL for each sample to be combined at 4° C. for 30 minutes. The cells were collected by centrifugation at 2000 rpm for 3 minutes, and 500 μL of fixation buffer was added to resuspend the cells, and the cells were measured by FACS calibur (FIG. 6).
The FACS test was performed to evaluate whether the anti-MSLN antibody was selectively bound to the MSLN-overexpressing cell line (MiaPaCa-MSLN #2). The anti-MSLN candidate antibody was labeled by the method described in Example 4-2 above, and the cells were measured by FACS calibur (FIG. 7).
B1: the “Mean, FL1-H” value was found to be 250.

With B2, the “Mean, FL1-H” value stood at 410.

Regarding B3, the “Mean, FL1-H” value worked out at 419.

With B4, the “Mean, FL1-H” value was found to be 293.

The target of the next test is T2, recombinant human mesothelin (MSLN) (human, UniProt Q13421 296-580, limits assumed).
T2 construct: also called human MSLN; recombinant human MSLN
T2 sequence (Q13421 other isoform, or with tags, fused parts or gaps limits assumed): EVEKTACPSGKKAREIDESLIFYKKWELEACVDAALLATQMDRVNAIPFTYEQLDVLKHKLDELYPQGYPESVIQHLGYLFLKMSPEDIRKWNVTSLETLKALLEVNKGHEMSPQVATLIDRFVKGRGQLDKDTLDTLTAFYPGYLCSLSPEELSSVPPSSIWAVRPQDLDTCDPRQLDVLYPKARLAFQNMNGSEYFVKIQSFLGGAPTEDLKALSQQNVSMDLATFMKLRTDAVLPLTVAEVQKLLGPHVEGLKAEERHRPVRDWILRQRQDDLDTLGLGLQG
Nature of the test: SPR, Biacore T-200; MSLN amine-coupled to CM5 chip, IgG in flow. As for the experimental part: Quantitative binding force (affinity) of the purified anti-MSLN antibodies, i.e., the MS502 clone light chain variable region mutation antibodies C2G1, C2G4, and C3C8 with regard to the recombinant human mesothelin (MSLN) was measured by using a Biacore T-200 (GE Healthcare, U.S.A.) biosensor. […] Then, the clone C2G1 antibody, the clone C2G4 antibody or the clone C3C8 antibody serially diluted with HBS-EP buffer (10 mM HEPES, pH7.4, 150 mM NaCl, 3 mM EDTA, 0.005% surfactant P20) was allowed to flow at a concentration range of 0.078 nM to 5 nM and at a flow rate of 30 μL/min for association of 120 seconds and dissociation of 1800 seconds. The dissociation of the antibody bound to the MSLN was induced by flowing 10 mM Glycine-HCl pH 1.5 at a flow rate of 30 μL/min for 30 seconds (Table 13). The affinity was obtained as movement speed constants (Kₒₙ and Koff) and an equilibrium dissociation constant (KD) by using a Biacore T-200 evaluation software (Table 14).
A general note: Surface plasmon resonance follows binding to a sensor surface in real time, without labels.
The term Kd denotes the equilibrium constant for the complex coming apart. Regarding B5, the Kd amounted to 0.122 nM.

Regarding B6, the Kd turned out to be 0.0939 nM.

For B7, the Kd was 0.0432 nM.

For a further test, the target named is T2, recombinant human mesothelin (MSLN). The test is described as above. This is another data set of the same source. As for the experimental part: The quantitative binding force (affinity) of each of the purified anti-MSLN antibodies, i.e., MS502 clone heavy chain variable region mutation antibodies 56, 2-30, 2-73, 2-78, and the combination antibodies of the C2G4 light chain variable region and the heavy chain variable region mutation antibodies including 56-C2G4, 2-30-C2G4, 2-73-C2G4, 2-78-C2G4 with regard to recombinant human mesothelin (MSLN) was measured by using a Biacore T-200 (GE Healthcare, U.S.A.) biosensor. […] Then, the clone 56 antibody, the clone 2-30 antibody, the clone 2-73 antibody, the clone 2-78 antibody, the clone 56-C2G4 antibody, the clone 2-30-C2G4 antibody, the clone 2-73-C2G4 antibody, and the clone 2-78-C2G4 antibody serially diluted with HBS-EP buffer (10 mM HEPES, pH7.4, 150 mM NaCl, 3 mM EDTA, 0.005% surfactant P20) were allowed to flow at a concentration range of 0.078 nM to 5 nM and at a flow rate of 30 μL/min for association of 120 seconds and dissociation of 1800 seconds. The dissociation of the antibody bound to the MSLN was induced by flowing 10 mM Glycine-HCl pH 1.5 at a flow rate of 30 μL/min for 30 seconds (Table 17). The affinity was obtained as movement speed constants (Kₒₙ and Koff) and an equilibrium dissociation constant (KD) by using a Biacore T-200 evaluation software (Table 18).
For B8, the Kd amounted to 0.0372 nM.

For a further test the target is unchanged. The test is described as above. This is another data set of the same source. How it is done: Quantitative binding force (affinity) of the purified anti-MSLN antibodies, i.e., MI323, MI329, MI403, MS502 clone antibodies with regard to recombinant human mesothelin (MSLN) was measured by using a Biacore T-200 (GE Healthcare, U.S.A.) biosensor. […] Then, […] serially diluted with HBS-EP buffer (10 mM HEPES, pH7.4, 150 mM NaCl, 3 mM EDTA, 0.005% surfactant P20) was allowed to flow at a concentration range of 0.078 nM to 5 nM and at a flow rate of 30 μL/min for association of 120 seconds and dissociation of 1800 seconds. The dissociation of the antibody bound to the MSLN was induced by flowing 10 mM Glycine-HCl pH 1.5 at a flow rate of 30 μL/min for 30 seconds (Table 7). The affinity was obtained as movement speed constants (Kₒₙ and Koff) and an equilibrium dissociation constant (KD) by using a Biacore T-200 evaluation software (Table 8).
As for B1, the Kd worked out at 0.45 nM.

In the case of B2, the equilibrium dissociation constant (Kd) was found to be 0.035 nM.

As for B3, the Kd was determined as 0.18 nM.

For B4, the Kd came to 0.23 nM.

A further test deals with T1, human mesothelin (MSLN) on the cell …. Nature of the test: FACS on MiaPaCa-MSLN #2 cells, upper histogram and table.
With B3, the “Mean, FL2-H” value came to 2880.

Regarding B4, the “Mean, FL2-H” value amounted to 2280.

With B8, the “Mean, FL2-H” value is 2280.
